Reference: the DeepSol protein solubility set

experiment: soluble on expression in E. coli; label from the status in PepcDB or PDB records

Soluble on expression in E. coli, not soluble:
MGSDKIHHHHHHMCMYSATFTLEAITPVFMRGANQSKAEIRAASIKGLMRWWFRALSGSYFGNDVEGLRRVEEYVFGSTKRESRVVVEVVKEHVEERFCPLPMVWKKKKGVTTRVSQRAIAPGSKFTLLLTSDDEEVLKLACYSLIGLVYFGGIGFRCSRGAGSLKISSLKSDVQLIDLPKNKNQLGQMVNDLTVEIAKILKKTFLCDHENKNCTSYSSFWCFYLFLWGEKAELEEVYYRSNNLENERLTLLDLFEKEFKNKNNHLSNYGYRDFVFGLPRGTKKDRRASPIKVGITELSEKYHVRVSVFKTKIFKPGMNVKWDNIFVFLENIGAERIYPER
MGSDKIHHHHHHMCPARLRTPRTASLPTHRRSAMTTANPLNTSFTSADAAELYQVPNWSGGWFRVSDKGLMEATPAPGLHASLRAIVDEIVDRGESLPVILRFPQVLAGRVKHLNEAFQAAINEYNYSGHYQGVFPIKVNQRRAVVETVAAAGYDYAHGLEAGSKAELALCLAQKMHPDALLCCNGFKDDGFIKLALWGRTLGKNVVITIEKFTELDRILKQAKALGVKPAVGVRFKLHARGSGQWEESGGDQAKFGLNAYELLRVVERLKEENMLDSLVMLHTHIGSQITDIRRVKVAVREAAQTYAGLIAAGADLKYLNVGGGLGVDYDGSKTTFYASMNYTVKEYAADIVYTVQEVCKAREVPEPVIVSESGRALTAHHAVLILPVVDVTGPTRNLEDQELTVPGEDSHQIVRDMYETLENISMRNYRESYNDAVGDKQTLHNLFDLGYVTLEDRARGEALFNAILRKIAKLIQGEKYVPDELEDLQKVLADKFICNFSLFQSLPDNWAIGALFPIVPLDRLNEQPTRQATLVDITCDSDGKVEKFIDLRDVKATLPLHEPGDRPYYLGAFLMGAYQDVLGSAHNLFGKVSEAHVTVRPGGRFNIDLFVRGQKARRMIESMGYEEPMLRDAIEDQADAAIGRGTLTQEQEHELLEDYGEELLGYTYLEYES
MGSDKIHHHHHHMDDTTFLSTKEKILEIKPLMESAFGNILGYQELENMLAICTLVPFSNNQILFHQGDRIKGIYIIIKGTVDLIARTLGKGITKIETCLASDFLGETSFLLNEPSATSAVAKDNVTCLFIPSAYFELMPAFSPEAKYKIMKAIGYQACGRLKQLHDKIIDFISHSDMQSLSFLGRVIQTFTQPKIHTLDESGVDKDQIYKKTLFNSFTQDETDELLEHAIPLTANKNCVLIHENETIPVCYIVIYGAVQSNVIQNSKIAKLSVIGPDSLFASTACFLSDTKFSITFITCESATLLKISEAELQYFQKNKPMIWYKLFNLICGSIISLARSLKKLDVRLNIEKYNQ
MGSDKIHHHHHHMDEIVKVLSQHDRILVVGHIMPDGDCVSSVLSLTLGLEKLGKEVKAAVDYKIPYVFEKFPYIDKIEENPNFDPELLVVVDASSPDRIGKFQDLLDKVPSVVIDHHSTNTNFGNWNWVDPSFAATAQMIFRINKALGVEYDSNLATLNYLGIATDTGFFRHSNADVRVFEDAYKLVKMGADAHFVAKEILENKRFEQFKLFAEVLERLQLLENGKIAYSYIDYDTYLRHNCTDEDSAGFVGELRSIRGVEVAVLFMEFPRGKIHVSMRSKDWFNVNEVAFELGGGGHPRAAGVTFEGKKIEEVIPRVINHLLKKFKEGVESESEKIPEGDVLGG
MGSDKIHHHHHHMDENEFDNQRENKAVARVIISFLKYEEYALKEIYNLRVKKWASISDRQKDMVPNYTKYLANLKAAIIENGKFFRSVAEYALQSISFEPGEIVQPNDLDMSKTCSLLTQVYREWSAEAISERNCLNSRLVPFLKTLSPPKADILIPGCGTGRLLVDLSRMGYNCEGNEFSYHMLLVSQYMLNAGLLQNQIIIYPFIHCFSHWKKIEDQLSPIKVPDIEAWSSNKGMGSMSICAGSFVDCYGRNQGTKISSHYTFSRRMQLSRAKAENSKDVVVTNFFIDTGSNILDYLDTIGHVLKPGGIWCNFGPLLYHFENDHGVETTYEVNPYSGFQDKINDYTPLMGLELSSDDIISIATNHLDFELIRRESGILCGYGRYAGPESCAMPGYMCHYWILKSNPTNES
MGSDKIHHHHHHMDFALEQYHSAKDLLIFELRKFNPIVLVSSTIVATYVLTNLRHMHLDEMGIRKRLSTWFFTTVKRVPFIRKMIDKQLNEVKDELEKSLRIVDRSTEYFTTIPSHSVGRTEVLRLAAIYDDLEGPAFLEGRVSGAVFNREDDKDEREMYEEVFGKFAWTNPLWPKLFPGVRIMEAEVVRMCCNMMNGDSETCGTMSTGGSISILLACLAHRNRLLKRGEKYTEMIVPSSVHAAFFKAAECFRIKVRKIPVDPVTFKVDLVKMKAAINKRTCMLVGSAPNFPFGTVDDIEAIGQLGLEYDIPVHVDACLGGFLLPFLEEDEIRYDFRVPGVSSISADSHKYGLAPKGSSVVLYRNKELLHNQYFCDADWQGGIYASATMEGSRAGHNIALCWAAMLYHAQEGYKANARKIVDTTRKIRNGLSNIKGIKLQGPSDVCIVSWTTNDGVELYRFHNFMKEKHWQLNGLQFPAGVHIMVTMNHTHPGLAEAFVADCRAAVEFVKSHKPSESDKTSEAAIYGLAQSIPDRSLVHEFAHSYIDAVYALTE
MGSDKIHHHHHHMDHQIEDFLEHWLPLADDAWVLAVITQIQGSAYRKPGAMMLFHEFGQGVGMLSGGCLEADLRRHAQKAMQTKQVTCVTYDASDESDASYRLGCGGIVDIMLIPLLKENHDLGLIELVQAFRHGRSGFYQLPLVKAGTDARQYQAAFYPEALTPFPASDFVRTGVFTQEAGESLIIPLRPRFHLGIFGGGIDAKPIAAMADTLGWQVTVFDGRTAYARAADFPHAHIVKLTAGELTANHIAQLDCAVVMNHNLGLDAVALKVIQAHPLAYVALLGPAHRRDKVLGMAGLSTESFSGVFSAPAGLALGGELPSAVALSILAQCHGVLHGATLKHLDEIMR
MGSDKIHHHHHHMDIGDKGEMLSLLKALVNIDSGSYYKEGVDRVGRMLTNAFKQIGFKVAIFKQERYGDHLLFTHPHAFDPKILLVAHMDTVFPVGTAAARPFQLIGTRAYGPGVIDMKGSLVACLYAIKALVGAQSPAVKQVAVLMTSDEEIGAPSGREIIEKIGVGKKAVLVMEPARKDGSLVTARRGGGRYTLNVTGRAAHSGVEPEKGRSAIEELAHKIMKLHALSDYKSGISVNVGVIEGGTAVNTVADRAKAKVDIRISRLEQAEPLDRDIRRICGTPDVDGTTIELKGGITRPPMERNAQTVALFQLIQQVASTIGLELTETATGGSSDASFTSALGIPTIDGMGPVGGFPHSEKEYLRVDTMQERTLLLAKVIERLSE
MGSDKIHHHHHHMDILQTANERMEQLAALMNKDIKQKVSADQKVKVGVDLGTSSIVFVVLDEHDVPLFGAFEFADAVRDGLVVNYRESVEVVTRLKERAEKCLGITLTHASGAIPPGTVGNNKKVVANVIESAGMEALYTIDEPTAAAAVLGLQDGAVVDVGGGTTGISVFENGEVIYTADEPTGGTHMTLVLAGYYGVPVEKAEQNKREQKDSSEHFSVMRPVVEKMAEITRVHLEKSPSEPLYIVGGASAYSQFKDTFESYLKTPVFQPNYPQYVTPLGIAMSSGSENL
MGSDKIHHHHHHMDISDIAANDYVEVDAEQRLGKVRSLFERENPKGVIVTEAGAYDGVITERQLIQSHIGDDTRVAAMVTDAPKVSRTEDVRETARMLVEGGTKIAPVFEAGSLWGVITEDAILDAVLANLDALDVRDIYTEHVVTVDEDDSMGRVINLLREHGISRLPVVDDAGLLSGIVTRYDIVDFVVRDTEKTTVGDRSGEIERLLDLPVSDEMTSPVKTASFDDSVRDAVDDMLAHDYSGVIVTPDDDERAVGGILTKTDVLRALSYTEEEHLDVQITNIDLLDTLSRQEVRERIENVVAKYGDMDVHHAHVRLSKHKEKLRGTPLIQSQIRLRTNKGQIAGTGEGYGADNSFHVALDKLERNVLELKGIEHDEEYEGQLLRKLNDL
MGSDKIHHHHHHMDISGRDVETRLTLAREFMSGVDELPTVPDIVLRIAGKLNDPDVAIDEVADLLLQDQVLTARVVHLANSPLYSAARPISSIRDAVIYLGLDLLREAIFTCAIVDLFKTGKGPLNRSTLWAHSLGVARIAKLIAERTGFLNPVNVYVAGLLHDVGEVFINFFRGKEFSQVVTLVDEEKITFGQAEERLFGTSHCEVGFALAKRWSLNEFICDTILYHHDIEAVPYKQAAIVAMVAFADEYCTLRRLGFEGHKPVDSVRTLLENHPSWGVIRRSLGGSDFDEKLIVAELDSSIVEIRAAVDELFLL
